Experimental data from patent publication US7060495 (AVENTIS PHARMA DEUTSCHLAND, dated 2006).

Experiments:
[1] = target: T1, carcinoembryonic antigen (CEA) (UniProt P06731 35-685, limits assumed); experiment: specificity enzyme activity test (refers to Example 5)
T1 construct: Tumor-associated antigen coated on microtiter plates in the specificity enzyme activity test
T1 sequence (looked up): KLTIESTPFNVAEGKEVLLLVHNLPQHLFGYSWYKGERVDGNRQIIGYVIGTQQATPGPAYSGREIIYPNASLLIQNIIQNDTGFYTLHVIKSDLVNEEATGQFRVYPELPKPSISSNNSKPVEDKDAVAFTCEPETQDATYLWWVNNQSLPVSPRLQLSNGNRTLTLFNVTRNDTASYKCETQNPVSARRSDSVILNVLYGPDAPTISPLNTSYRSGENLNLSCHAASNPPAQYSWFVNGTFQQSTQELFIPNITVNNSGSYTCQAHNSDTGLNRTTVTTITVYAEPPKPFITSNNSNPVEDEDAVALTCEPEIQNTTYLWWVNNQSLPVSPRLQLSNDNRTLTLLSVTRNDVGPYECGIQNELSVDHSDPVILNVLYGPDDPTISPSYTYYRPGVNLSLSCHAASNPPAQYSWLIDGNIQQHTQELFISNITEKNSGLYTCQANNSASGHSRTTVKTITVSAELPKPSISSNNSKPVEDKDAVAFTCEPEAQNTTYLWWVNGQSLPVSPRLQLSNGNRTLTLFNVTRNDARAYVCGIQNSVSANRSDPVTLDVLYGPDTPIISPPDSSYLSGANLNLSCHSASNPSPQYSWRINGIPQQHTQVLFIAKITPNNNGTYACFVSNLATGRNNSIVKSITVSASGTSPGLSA
Excerpt: (§1) The test determines the liberation of 4-methylumbelliferone from 4-methylumbelliferyl β-glucuronide by the β-glucuronidase portion of the fusion protein after the fusion protein has been bound via the sFv portion to an antigen. The measured fluorescence values are reported as relative fluorescence units (FU).

[2] = target: T2, polymorphic epithelial mucin (PEM) (UniProt P15941 24-1097, limits assumed); experiment: specificity enzyme activity test: antigen-coated plate, bound fusion protein detected by its β-glucuronidase activity on 4-methylumbelliferyl β-glucuronide
T2 construct: Control antigen in the specificity enzyme activity test
T2 sequence (P15941 24-1097 limits assumed): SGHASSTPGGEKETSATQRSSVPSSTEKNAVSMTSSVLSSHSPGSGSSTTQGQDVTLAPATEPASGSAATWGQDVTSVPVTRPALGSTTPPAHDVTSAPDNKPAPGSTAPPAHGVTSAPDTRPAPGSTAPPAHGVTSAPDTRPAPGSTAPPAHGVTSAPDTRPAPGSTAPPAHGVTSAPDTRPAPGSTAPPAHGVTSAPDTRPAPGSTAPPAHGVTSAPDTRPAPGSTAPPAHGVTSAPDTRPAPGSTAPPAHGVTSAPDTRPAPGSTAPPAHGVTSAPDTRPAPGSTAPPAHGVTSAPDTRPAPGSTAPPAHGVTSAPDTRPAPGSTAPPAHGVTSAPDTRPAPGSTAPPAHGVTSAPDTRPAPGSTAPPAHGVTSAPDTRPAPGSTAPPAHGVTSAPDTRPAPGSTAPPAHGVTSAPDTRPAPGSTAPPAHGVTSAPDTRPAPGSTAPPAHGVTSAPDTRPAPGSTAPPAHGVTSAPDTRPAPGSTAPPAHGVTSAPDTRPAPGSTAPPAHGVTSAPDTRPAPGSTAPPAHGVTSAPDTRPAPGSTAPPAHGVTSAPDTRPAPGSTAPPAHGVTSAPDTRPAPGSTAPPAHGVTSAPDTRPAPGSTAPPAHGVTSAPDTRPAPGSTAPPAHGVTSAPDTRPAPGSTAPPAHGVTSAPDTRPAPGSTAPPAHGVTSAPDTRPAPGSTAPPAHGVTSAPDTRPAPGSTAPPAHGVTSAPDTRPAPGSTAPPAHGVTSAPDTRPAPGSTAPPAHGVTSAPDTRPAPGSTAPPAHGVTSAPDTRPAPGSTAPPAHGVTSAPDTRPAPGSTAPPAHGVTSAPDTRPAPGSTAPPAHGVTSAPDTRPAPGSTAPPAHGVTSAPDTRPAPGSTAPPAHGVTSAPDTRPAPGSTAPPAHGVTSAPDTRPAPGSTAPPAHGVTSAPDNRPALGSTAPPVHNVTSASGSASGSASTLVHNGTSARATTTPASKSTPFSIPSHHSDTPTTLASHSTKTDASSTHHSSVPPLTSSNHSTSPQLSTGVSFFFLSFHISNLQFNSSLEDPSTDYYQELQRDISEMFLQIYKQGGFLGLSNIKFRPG
Excerpt: as §1

binding result [1]: binds
binding result [2]: no binding
B1: sFv-huβ-Gluc fusion protein (humanized sFv 431/26 against CEA linked via a hinge to human β-glucuronidase, expressed in BHK cells) (other)
chain: QVQLQESGPGLVRPSQTLSLTCTVSGFTISSGYSWHWVRQPPGRGLEWIGYIQYSGITNYNPSLKSRVTMLVDTSKNQFSLRLSSVTAADTAVYYCAREDYDYHWYFDVWGQGTTVTVSSGGGGSGGGGSGGGGSDIQLTQSPSSLSASVGDRVTITCSTSSSVSYMHWYQQKPGKAPKLLIYSTSNLASGVPSRFSGSGSGTDFTFTISSLQPEDIATYYCHQWSSYPTFGQGTKLEIKELKTPLGDTTHTCPRCPAAAAVQGGMLYPQESPSRECKELDGLWSFRADFSDNRRRGFEEQWYRRPLWESGPTVDMPVPSSFNDISQDWRLRHFVGWVWYEREVILPERWTQDLRTRVVLRIGSAHSYAIVWVNGVDTLEHEGGYLPFEADISNLVQVGPLPSRLRITIAINNTLTPTTLPPGTIQYLTDTSKYPKGYFVQNTYFDFFNYAGLQRSVLLYTTPTTYIDDITVTTSVEQDSGLVNYQISVKGSNLFKLEVRLLDAENKVVANGTGTQGQLKVPGVSLWWPYLMHERPAYLYSLEVQLTAQTSLGPVSDFYTLPVGIRTVAVTKSQFLINGKPFYFHGVNKHEDADIRGKGFDWPLLVKDFNLLRWLGANAFRTSHYPYAEEVMQMCDRYGIVVIDECPGVGLALPQFFNNVSLHHHMQVMEEVVRRDKNHPAVVMWSVANEPASHLESAGYYLKMVIAHTKSLDPSRPVTFVSNSNYAADKGAPYVDVICLNSYYSWYHDYGHLELIQLQLATQFENWYKKYQKPIIQSEYGAETIAGFHQDPPLMFTEEYQKSLLEQYHLGLDQKRRKYVVGELIWNFADFMTEQSPTRVLGNKKGIFTRQRQPKSAAFLLRERYWKIANETRYPHSVAKSQCLENSPFT
modifications: glycosylated (galactose, mannose and other carbohydrates, Table 2)
notes: scFv-enzyme fusion
